Positions count from the first letter of the chain named.

One may read the TGI as how far tumour growth fell short of that in controls. Higher therefore signals a stronger effect on the tumour.

For one data set, the system named is ROR1 negative MCF7 cells. Kind of data set: In vitro cell killing of ROR1 ADCs, ROR1 negative cells (Cell Titer-Glo, 120 hours). The conditions noted are these: Table 13. Type of data set: cell-based, human. The source says:
(§1) Ntera-2, MDA-MB-231, MCF7, HCT116 and Mino cells were obtained from ATCC. HCT116-hRor1-D02 clone was generated by transfecting HCT116 cells with a plasmid containing human Ror1 cDNA sequence and selected for highest stable expression of hRor1 on the cell surface. MDA-MB-231, MCF7, HCT116 and HCT116-Ror1 cell were maintained in Ham's F-12 high glucose DMEM (50-50) (Cellgro-Mediatech; Manassas, VA) supplemented with 10% heat-inactivated fetal bovine serum (Hyclone; Thermo Scientific; Waltham, MA), 1% Penicillin/Streptomycin (Cellgro-Mediatech; Manassas, VA) and 2 mmol/L-glutamax (Life Technology; Carlsbad, CA). Mino cells were maintained in RPMI-1640 medium (Cellgro-Mediatech; Manassas, VA) supplemented with 20% heat-inactivated fetal bovine serum (Hyclone; Thermo Scientific; Waltham, MA), 1% Penicillin/Streptomycin (Cellgro-Mediatech; Manassas, VA) and 2 mmol/L-glutamax (Life Technology; Carlsbad, CA).
(§2) Anti-ROR1 antibody was conjugated to different linker-warheads described herein at different DARs and the cell killing activity of the ADCs were evaluated on ROR1 positive Ntera-2 cell and ROR1 negative MCF7 cells.
(§3) Ntera-2 or MCF7 cell at 625 cells/25 μL were seeded in a 384-well flat bottom white polystyrene plate one day before the assay start. ADCs were formulated at 2× starting concentration. Filter sterilized samples were serial diluted (1:3) under sterile conditions and added onto cells in triplicates. Plates were cultured at 37° C. in a CO2 incubator for 120 hours. […] Relative luminescence was measured on an ENVISION® plate reader (Perkin-Elmer; Waltham, MA). Relative luminescence readings were converted to % viability using untreated cells as controls. […]
(§4) To evaluate if the cell killing activity of anti-ROR1 ADCs is dependent on antibody binding to ROR1 expressed on cell surface, the same linker-warheads (LP3, LP4) were conjugated to an anti-GFP antibody and the cell killing of the anti-ROR1 and anti-GFP ADCs were evaluated in cell killing assays on ROR1 positive Ntera-2 cell and ROR1 negative MCF7 cells.
A general note: In ATP-based viability assays light output follows the ATP content of the culture.

Data set [1] deals with ROR1 positive Ntera-2 cell. The experiment in a line: In vitro cell killing of ROR1 ADCs, ROR1 positive cells (Cell Titer-Glo, 120 hours). Type of data set: cell-based, human. The conditions noted are these: Table 13.
From the text: as §1, §2, §3, §4

Data set [2] can be described thus: Differential scanning fluorimetry (protein thermal shift; TM1 Fc, TM2 Fab). Type of data set: physicochemical. The conditions noted are these: melting temperature of the Fab domain; Table 11. The protocol: A protein thermal shift assay was carried out by mixing the protein to be assayed with an environmentally sensitive dye (SYPRO Orange, Life Technologies Cat #S-6650) in a phosphate buffered solution (PBS), and monitoring the fluorescence of the mixture in real time as it underwent controlled thermal denaturation. Protein solutions between 0.2-2 mg/mL were mixed at a 1-1 volumetric ratio with a 1-500 PBS-diluted solution of SYPRO Orange (SYPRO Orange stock dye is 5000× in DMSO). 10 μL aliquots of the protein-dye mixture were dispensed in quadruplicate in a 384-well microplate (Bio-Rad Cat #MSP-3852), and the plate was sealed with an optically clear sealing film (Bio-Rad Cat #MSB-1001) and placed in a 384-well plate real-time thermocycler (Bio-Rad CFX384 Real Time System). The protein-dye mixture was heated from 25° C. to 95° C., at increments of 0.1° C. per cycle (˜1.5° C. per minute), allowing 3 seconds of equilibration at each temperature before taking a fluorescence measurement. At the end of the experiment, the transition melting temperatures (TM1 and TM2) were determined using the Bio-Rad CFX manager software. TM1 represents the melting temperature of the Fc domain. TM2 represents the melting temperature of the Fab domain.
For the thermal stability of an antibody, the first melting peak (Tm1) coincides with the unfolding of the CH2 domain (FC stability), while the second melting peak (Tm2) occurs upon unfolding of the Fab domain.
(DSF heats the sample and reads unfolding from a dye or from intrinsic fluorescence.)

In another data set the target is T1, human ROR1-Fz (Homo sapiens, UniProt Q01973).
T1 construct: Frizzled (Fz, residues 165-305); HIS6 (C); purchased Acro Biosystems; host or cells: HEK293
T1 sequence (Q01973 165-305): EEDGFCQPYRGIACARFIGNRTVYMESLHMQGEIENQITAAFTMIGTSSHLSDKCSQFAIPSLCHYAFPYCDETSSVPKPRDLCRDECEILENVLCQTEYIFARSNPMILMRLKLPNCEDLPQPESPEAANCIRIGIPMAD
The experiment in a line: Biacore off-rate and kinetic analysis, ROR1 frizzled domain. The data set is classed as binding. The conditions noted are these: Table 11 (SP34 light chain). The protocol: Anti-Fc polyclonal antibodies were immobilized onto a CM5 chip (GE Life Sciences) using amine coupling chemistry (from Amine Coupling Kit, GE Life Sciences). The immobilization steps were carried out at a flow rate of 25 μL/min in 1×HBS-EP+ buffer (GE Life Sciences; 10× Stock diluted before use). The sensor surfaces were activated for 7 min with a mixture of NHS (0.05 M) and EDC (0.2 M). The Anti-Fc antibodies were injected over all 4 flow cells at a concentration of 25 ug/ml in 10 mM sodium acetate, pH 4.5, for 7 min. Ethanolamine (1 M, pH 8.5) was injected for 7 min to block any remaining activated groups. An average of 12,000 response units (RU) of capture antibody was immobilized on each flow cell.
Off-rate and kinetic binding experiments were performed at 25° C. using 1×HBS-EP+ buffer. Test and control antibodies were injected over the anti-Fc surface at concentrations of 5-10 μg/mL for 12 seconds at a flow rate of 10 μL/min on flow cells 2, 3 and 4, followed by a buffer wash for 30 seconds at the same flow rate. Kinetic characterization of antibody samples was carried out with a range of antigen concentrations from 1-100 nM and 1 injection of 0 nM antigen (for example, 100, 50, 25, 6.25, 1.56 and 0 nM). After capturing ligand (antibody) on the anti-Fc surface, the analyte (hROR1, Fz or Kr domains, Acro Biosystems, Delaware) was bound for 180 seconds, followed by a 600 second dissociation phase at a flow rate of 50 μL/min. Between each ligand capture and analyte binding cycle, regeneration was carried out using 2 injections of 10 mM Glycine pH 2.0 for 30 seconds at 30 μL/min, followed by a 30 second buffer wash step.
The data was fit with the Biacore T200 Evaluation software, using a 1-1 Langmuir binding model. KD (affinity, nM) was determined as a ratio of the kinetic rate constants calculated from the fits of the association and dissociation phases.
For anti-CD3-LC-containing IgGs that had detectable ROR1-binding in ELISA (1944-A07 and 1987-C05 variants), those antibodies were further tested for binding by surface plasmon resonance (SPR). Binding kinetics were assessed to the ROR1-frizzled domain (hROR1-Fz) or the ROR1-extracellular domain (hROR1) for 1944-A07 and 1987-C05 variants, respectively. Briefly, anti-ROR1 antibodies were captured via anti-human Fc polyclonal antibodies immobilized to a CM5 chip, and ROR1 recombinant proteins were flowed across the surface to assess binding kinetics. hROR1 or hROR1-Fz domain (Acro Biosystems, Delaware) binding was tested at 100, 50, 25, 6.25, 1.5625 nM. The data was fit with the Biacore™ T200 Evaluation software, using a 1-1 Langmuir binding model. KD (affinity, nM) was determined as a ratio of the kinetic rate constants calculated from the fits of the association and dissociation phases.
(Surface plasmon resonance follows binding to a sensor surface in real time, without labels.)

The subject of another data set is MDA-MB-231 tumor. Kind of data set: MDA-MB-231 TNBC xenograft model. Type of data set: in vivo, SCID/beige mice. The protocol:
The activities of ROR1-targeted ADCs described herein were examined in a MDA-MB-231 TNBC xenograft model. Briefly, SCID/beige mice were implanted subcutaneously with 5×10^6 MDA-MB-231 tumor cells in the mammary fat pad and randomized and enrolled into the study 7 days post implant, with tumor sizes around 130 mm^3. Tumor-bearing mice were administered four weekly doses (qw×4) of the test articles at doses ranging from 2 mg/kg to 5 mg/kg. All treatments were well tolerated with normal body weight gain throughout the course of the study.
SCID/beige mice were implanted subcutaneously with 5×10^6 MDA-MB-231 tumor cells in the mammary fat pad and randomized and enrolled into the study 7 days post implant, with tumor sizes around 130 mm^3. Tumor-bearing mice were administered four weekly doses (qw×4) of the test articles at doses ranging from 2 mg/kg to 5 mg/kg. All treatments were well tolerated with normal body weight gain throughout the course of the study.
SCID/beige mice were implanted subcutaneously with 5×10^6 MDA-MB-231 tumor cells in the mammary fat pad and randomized and enrolled into the study 7 days post implant, with tumor sizes around 130 mm^3. Tumor-bearing mice were administered three weekly doses (qw×3) of the test articles at doses ranging from 2 mg/kg to 5 mg/kg. All treatments were well tolerated with normal body weight gain throughout the course of the study. […]

For `CC[C@@]1(O)C(=O)OCc2c1cc1n(c2=O)Cc2c-1nc1cc(F)c(C)c3c1c2[C@@H](NC(=O)CO)CC3` [Dxd], the “MCF-7 Span” value in the data set on ROR1 negative MCF7 cells is 63%. For the same molecule, the “NTERA-2 Span” value in data set [1] is 99%.
Taken in the same sequence, the figures for `COc1cccc2c1C(=O)c1c(O)c3c(c(O)c1C2=O)C[C@@](O)(C(=O)NCCN)C[C@@H]3O[C@H]1C[C@H]2[C@H](O[C@@H]3[C@@H](OC)OCCN32)[C@H](C)O1` [PNU-EDA] were 85% and 99%.

B1: SRP2196-B11 (antibody, V domains shown)
VH: EVQLVESGGGLVQPGGSLRLSCAASGFNITGYYIHWVRQAPGRGLEWVGQISPNSGYTYYADSVKGRFTISADTSKNTAYLQMNSLRAEDTAVYYCARDSRRYIRSWDYWGQGTLVTVSS
VL: QAVVTQESALTTSPGETVTLTCRSSTGAVTTSNYANWVQEKPDHLFTGLIGGTNKRAPGVPARFSGSLIGDKAALTITGAQTEDEAIYFCALWYSNLWVFGGGTKLTVL
With B1, the TM2 in data set [2] worked out at 74 °C. Also, in the data set with human ROR1-Fz, the “Biacore human ROR1-Fz ka” value came out at 137000 M⁻¹ s⁻¹ and the “Biacore human ROR1-Fz kd” value stood at 0.000597 s⁻¹.

B2: SRP2196-C01 (antibody, V domains shown)
VH: B1 VH with T30I, R43K, Q50S, S52T, N54L, Y57A, Y59S, Y60K
VL: B1 VL
Consider B2, for which the TM2 in data set [2] was 70 °C. In the data set with human ROR1-Fz, the “Biacore human ROR1-Fz ka” value is 125000 M⁻¹ s⁻¹ and the “Biacore human ROR1-Fz kd” value is 0.000457 s⁻¹.

B3: SRP2196-C02 (antibody, V domains shown)
VH: B1 VH with Y33H, R43K, Q50F, Y57W, Y60S, I104V, S106P, W107F
VL: B1 VL
In the case of B3, the TM2 in data set [2] was determined as 67 °C. For the same molecule, in the data set with human ROR1-Fz, the “Biacore human ROR1-Fz ka” value was determined as 119000 M⁻¹ s⁻¹ and the “Biacore human ROR1-Fz kd” value came to 0.00036 s⁻¹.

B4: SRP2196-C04 (antibody, V domains shown)
VH: EVQLVESGGGLVQPGGSLRLSCAASGFNITGYYIHWVRQAPGKGLEWVGFIAPLSGSTHNADSVKGRFTISADTSKNTAYLQMNSLRAEDTAVYYCARESRRYVNPWDYWGQGTLVTVSS
VL: B1 VL
Take B4: the TM2 in data set [2] stood at 70 °C. In the data set with human ROR1-Fz, the “Biacore human ROR1-Fz ka” value was found to be 131000 M⁻¹ s⁻¹ and the “Biacore human ROR1-Fz kd” value came out at 0.000704 s⁻¹.

B5: SRP2196-C03 (antibody, V domains shown)
VH: B1 VH with R43K, Y57S, Y60S, N84S, I104V, R105L
VL: B1 VL
In the case of B5, in data set [2], the TM2 came to 69 °C. In addition, in the data set with human ROR1-Fz, the “Biacore human ROR1-Fz ka” value was determined as 143000 M⁻¹ s⁻¹ and the “Biacore human ROR1-Fz kd” value came to 0.000461 s⁻¹.

B6: Conjugate 4 (conjugate)
heavy: MEVQLVESGGGLVQPGGSLRLSCAASGFNISDYDIHWVRQAPGKGLEWVGGIDPADGSTDYADSVKGRFTISADTSKNTAYLQMNSLRAEDTAVYYCARDYGVYDYWGQGTLVTVSSASTKGPSVFPLAPSSKSTSGGTAALGCLVKDYFPEPVTVSWNSGALTSGVHTFPAVLQSSGLSLSSVVTVPSSSLGTQTYICNVNHKPSNTKVDKKVEPKSCDKTHTCPPCPAPELLGGPSVFLFPPKPKDTLMISRTPEVTCVVVDVSHEDPEVKFNWYVDGVEVHNAKTKPREEQYNSTYRVVSVLTVLHQDWLNGKEYKCKVSNKALPAPIEKTISKAKGQPREPQVYTLPPSREEMTKNQVSLTCLVKGFYPSDIAVEWESNGQPENNYKTTPPVLDSDGSFLYSKLTVDKSRWQQGNVFSCSVMHEALHNHYTQKSLSLSPGK
light: MDIQMTQSPSSLSASVGDRVTITCRASQDVNTAVAWYQQKPGAPKLLIYSASFLYSGVPSRFSGSRSGTDFTLTISSLQPEDFATYYCQQHYTTPPTFGQGTKVEIKRTVAAPSVFIFPPSDEQLKSGTASVVCLLNNFYPREAKVQWKVDNALQSGNSQSVTEQDSKDSTYSLSSTLTLSKADYEKHKVYACEVTHQGLSSPVTKSFNRGEC
As for B6, the TGI in the data set with MDA-MB-231 tumor (Example 20, day 42, 2 mg/kg qw×4) is reported as 36%; in the data set with MDA-MB-231 tumor (Example 21, day 43, 5 mg/kg qw×4), 23%.
